Biological target: RAP1 (RAP1-GTPase) (UniProt P62834)
Sequence (P62834 1-181): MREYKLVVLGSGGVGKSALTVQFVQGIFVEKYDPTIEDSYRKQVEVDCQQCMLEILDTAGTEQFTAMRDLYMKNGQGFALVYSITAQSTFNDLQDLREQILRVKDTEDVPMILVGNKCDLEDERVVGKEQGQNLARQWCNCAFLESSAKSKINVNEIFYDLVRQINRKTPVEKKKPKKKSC

Rap1GAP (RAP1 GTPase Activating Protein)
RAP1 activity (active GTP-bound RAP1 pull-down, immunoblot with RAP1 antibody): Enforced Rap1GAP expression in human GICs inhibited RAP1 activity
